Experimental findings from patent US20240261333A1 (published 2024) are described below.

What all share (assay): co-IP with anti-FLAG, N-FLAG B3GNT2, mass spectrometry
In assay [1] the target is T1, CALML5 (human, UniProt Q9NZT1 2-146).
T1 construct: also called NP_059118.2
T1 sequence (looked up): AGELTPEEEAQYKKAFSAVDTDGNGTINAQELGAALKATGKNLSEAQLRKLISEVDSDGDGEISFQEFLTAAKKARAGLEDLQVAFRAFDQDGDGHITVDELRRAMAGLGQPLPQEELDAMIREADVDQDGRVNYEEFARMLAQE

Assay [2] addresses T2, DHX9 (human, UniProt Q08211 1-1270).
T2 construct: also called NP_001348.2

Assay [3] concerns the target T3, CHCHD3 (human, UniProt Q9NX63 2-227, limits assumed).
T3 construct: also called NP_001304106.1 (+1)
T3 sequence (looked up): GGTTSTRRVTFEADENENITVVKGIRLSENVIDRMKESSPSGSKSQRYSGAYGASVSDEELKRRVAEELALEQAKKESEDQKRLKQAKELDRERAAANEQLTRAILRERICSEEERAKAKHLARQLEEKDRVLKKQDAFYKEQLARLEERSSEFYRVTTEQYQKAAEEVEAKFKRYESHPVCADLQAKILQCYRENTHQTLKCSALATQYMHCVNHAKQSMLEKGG

For assay [4], the target named is T4, SRSF6 (human, UniProt Q13247 1-344).
T4 construct: also called NP_006266.2
T4 sequence (looked up): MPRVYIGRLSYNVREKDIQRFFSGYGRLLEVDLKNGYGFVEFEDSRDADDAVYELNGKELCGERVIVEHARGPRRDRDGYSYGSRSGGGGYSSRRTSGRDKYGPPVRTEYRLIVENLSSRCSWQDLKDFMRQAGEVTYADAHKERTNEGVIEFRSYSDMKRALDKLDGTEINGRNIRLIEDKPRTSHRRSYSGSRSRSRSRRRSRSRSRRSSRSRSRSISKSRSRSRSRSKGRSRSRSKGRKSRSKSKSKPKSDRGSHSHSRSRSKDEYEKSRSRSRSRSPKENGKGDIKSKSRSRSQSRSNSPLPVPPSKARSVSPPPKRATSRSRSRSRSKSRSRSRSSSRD

Assay [5] addresses T5, LAMC1 (human, UniProt P11047 34-1609).
T5 construct: also called NP_002284.3

In assay [6] the target is T6, NAP1L1 (human, UniProt P55209 2-388).
T6 construct: also called NP_001294853.1 (+1)
T6 sequence (looked up): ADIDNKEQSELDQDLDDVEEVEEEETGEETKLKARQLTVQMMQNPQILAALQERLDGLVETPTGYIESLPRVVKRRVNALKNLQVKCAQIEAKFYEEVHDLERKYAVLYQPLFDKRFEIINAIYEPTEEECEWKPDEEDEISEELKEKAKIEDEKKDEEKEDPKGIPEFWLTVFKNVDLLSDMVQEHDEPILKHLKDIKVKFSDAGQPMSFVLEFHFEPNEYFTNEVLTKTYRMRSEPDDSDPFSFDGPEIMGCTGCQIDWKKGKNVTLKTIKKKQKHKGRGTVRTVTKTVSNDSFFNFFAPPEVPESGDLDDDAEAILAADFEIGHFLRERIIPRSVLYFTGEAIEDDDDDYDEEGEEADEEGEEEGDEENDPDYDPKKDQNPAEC

Assay [7] has as its target T7, ARPC1B (human, UniProt O15143 2-372).
T7 construct: also called NP_005711.1

T5 sequence (P11047 34-1609 limits assumed): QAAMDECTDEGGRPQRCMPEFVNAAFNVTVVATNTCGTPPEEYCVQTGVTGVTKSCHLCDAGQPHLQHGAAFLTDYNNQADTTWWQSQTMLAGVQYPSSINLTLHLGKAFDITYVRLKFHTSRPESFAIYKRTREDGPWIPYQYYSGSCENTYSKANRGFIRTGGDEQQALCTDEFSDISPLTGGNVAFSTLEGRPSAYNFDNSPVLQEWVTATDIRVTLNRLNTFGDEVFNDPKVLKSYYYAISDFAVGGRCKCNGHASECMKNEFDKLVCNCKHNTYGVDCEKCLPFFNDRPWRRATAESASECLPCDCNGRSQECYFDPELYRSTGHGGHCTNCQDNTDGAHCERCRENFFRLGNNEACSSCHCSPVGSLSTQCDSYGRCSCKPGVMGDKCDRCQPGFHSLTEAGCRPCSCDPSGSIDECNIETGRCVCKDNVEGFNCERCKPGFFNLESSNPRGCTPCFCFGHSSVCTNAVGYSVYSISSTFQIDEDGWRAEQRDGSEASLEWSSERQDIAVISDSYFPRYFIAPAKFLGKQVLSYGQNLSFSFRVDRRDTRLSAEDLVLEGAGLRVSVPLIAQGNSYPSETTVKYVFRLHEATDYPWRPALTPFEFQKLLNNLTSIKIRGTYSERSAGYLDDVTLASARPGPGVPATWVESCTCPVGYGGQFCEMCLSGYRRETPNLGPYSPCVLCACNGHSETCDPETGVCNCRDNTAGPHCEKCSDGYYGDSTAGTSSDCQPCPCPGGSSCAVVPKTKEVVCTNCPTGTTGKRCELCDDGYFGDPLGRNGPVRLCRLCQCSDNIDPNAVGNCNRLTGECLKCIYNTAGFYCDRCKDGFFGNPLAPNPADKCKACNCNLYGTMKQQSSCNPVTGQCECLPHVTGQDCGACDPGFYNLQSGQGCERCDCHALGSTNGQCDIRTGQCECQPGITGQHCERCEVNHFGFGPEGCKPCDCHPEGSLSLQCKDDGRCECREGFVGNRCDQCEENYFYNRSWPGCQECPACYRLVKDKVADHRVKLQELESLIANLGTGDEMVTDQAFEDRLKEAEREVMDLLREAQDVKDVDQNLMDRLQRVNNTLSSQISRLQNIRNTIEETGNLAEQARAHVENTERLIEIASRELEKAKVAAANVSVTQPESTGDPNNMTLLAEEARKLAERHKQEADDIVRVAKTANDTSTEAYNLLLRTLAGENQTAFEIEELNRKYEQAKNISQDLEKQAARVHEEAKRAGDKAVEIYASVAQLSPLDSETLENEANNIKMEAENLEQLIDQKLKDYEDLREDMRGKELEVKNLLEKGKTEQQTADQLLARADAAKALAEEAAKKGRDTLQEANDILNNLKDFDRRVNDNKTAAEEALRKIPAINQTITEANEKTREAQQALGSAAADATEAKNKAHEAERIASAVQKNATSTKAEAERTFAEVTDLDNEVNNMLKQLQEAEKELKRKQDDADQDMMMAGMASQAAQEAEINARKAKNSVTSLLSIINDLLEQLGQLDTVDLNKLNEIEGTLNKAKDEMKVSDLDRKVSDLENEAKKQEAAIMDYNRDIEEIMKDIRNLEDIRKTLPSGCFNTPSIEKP
T2 sequence (Q08211 whole entry): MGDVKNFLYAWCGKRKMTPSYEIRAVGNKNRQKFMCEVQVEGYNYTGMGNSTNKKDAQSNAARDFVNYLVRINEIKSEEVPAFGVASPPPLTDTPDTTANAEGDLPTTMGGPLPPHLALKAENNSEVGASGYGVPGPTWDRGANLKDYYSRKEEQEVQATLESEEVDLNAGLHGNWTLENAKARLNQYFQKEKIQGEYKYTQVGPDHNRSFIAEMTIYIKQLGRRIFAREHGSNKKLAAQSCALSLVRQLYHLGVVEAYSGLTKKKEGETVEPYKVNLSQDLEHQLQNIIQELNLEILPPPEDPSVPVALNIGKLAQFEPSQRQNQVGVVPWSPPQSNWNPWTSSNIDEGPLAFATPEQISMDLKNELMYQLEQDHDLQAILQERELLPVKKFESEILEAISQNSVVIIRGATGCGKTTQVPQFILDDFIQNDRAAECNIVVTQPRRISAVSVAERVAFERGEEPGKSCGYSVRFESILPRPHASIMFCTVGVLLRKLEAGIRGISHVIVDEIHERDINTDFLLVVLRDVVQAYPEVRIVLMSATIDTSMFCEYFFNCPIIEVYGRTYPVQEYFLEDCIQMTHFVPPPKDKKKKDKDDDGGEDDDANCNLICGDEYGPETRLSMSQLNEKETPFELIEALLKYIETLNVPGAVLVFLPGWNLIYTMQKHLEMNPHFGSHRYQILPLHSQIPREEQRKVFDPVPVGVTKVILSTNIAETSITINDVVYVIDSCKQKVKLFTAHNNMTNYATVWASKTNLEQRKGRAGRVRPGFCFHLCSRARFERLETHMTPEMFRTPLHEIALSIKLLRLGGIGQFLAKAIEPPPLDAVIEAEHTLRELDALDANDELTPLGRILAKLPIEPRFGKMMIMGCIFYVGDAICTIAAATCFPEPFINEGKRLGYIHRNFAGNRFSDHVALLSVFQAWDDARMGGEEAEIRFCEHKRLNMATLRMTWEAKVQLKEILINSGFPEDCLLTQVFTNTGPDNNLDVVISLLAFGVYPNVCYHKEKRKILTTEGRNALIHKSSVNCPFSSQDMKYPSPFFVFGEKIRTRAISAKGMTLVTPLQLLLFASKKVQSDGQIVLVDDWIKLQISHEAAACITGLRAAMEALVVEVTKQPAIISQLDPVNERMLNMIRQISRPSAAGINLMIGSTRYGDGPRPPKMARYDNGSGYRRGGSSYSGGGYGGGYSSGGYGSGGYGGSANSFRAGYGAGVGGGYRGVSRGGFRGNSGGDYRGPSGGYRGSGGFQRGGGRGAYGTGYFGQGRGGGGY

B1: N-terminal FLAG tagged B3GNT2 (enzyme, human, UniProt Q9NY97 1-397, looked up)
chain: MSVGRRRIKLLGILMMANVFIYFIMEVSKSSSQEKNGKGEVIIPKEKFWKISTPPEAYWNREQEKLNRQYNPILSMLTNQTGEAGRLSNISHLNYCEPDLRVTSVVTGFNNLPDRFKDFLLYLRCRNYSLLIDQPDKCAKKPFLLLAIKSLTPHFARRQAIRESWGQESNAGNQTVVRVFLLGQTPPEDNHPDLSDMLKFESEKHQDILMWNYRDTFFNLSLKEVLFLRWVSTSCPDTEFVFKGDDDVFVNTHHILNYLNSLSKTKAKDLFIGDVIHNAGPHRDKKLKYYIPEVVYSGLYPPYAGGGGFLYSGHLALRLYHITDQVHLYPIDDVYTGMCLQKLGLVPEKHKGFRTFDIEEKNKNNICSYVDLMLVHSRKPQEMIDIWSQLQSAHLKC
notes: FLAG-tagged ORF overexpressed in cells; pulled down from lysate with mouse anti-FLAG; also called N-FLAG B3GNT2; N-term FLAG; not shown: N-terminal FLAG tag
For B1, the results for the “co-IP mass spectrometry count” value in assay [1], in assay [2] and in assay [3] were 0, 0 and 16, respectively.

B2: N-terminal FLAG tagged B3GNT2 (enzyme, human, UniProt Q9NY97 1-397, looked up)
chain: B1 chain
notes: FLAG-tagged ORF overexpressed in A375 cells; pulled down from the lysate with mouse anti-FLAG; also called N-FLAG B3GNT2; N-term FLAG; not shown: N-terminal FLAG tag
As to B2, the “co-IP/MS count, N-term FLAG” value in assay [4] is 6; in assay [5], 0; in assay [6] it was 0; in assay [7] it was 0.
